According to patent US7423017B2, “Method for treating cartilage disorders” (Genentech, Inc., priority 1997, dated 2008):
“Also recorded” adds a separate entry of the source. Positions of bridges follow the written chain, without caps; N, C: chain ends. Residues, ends and D or L forms follow the SMILES beside them.

Assays:
IGFBP-1 [1] = target: T1, IGFBP-1 (Homo sapiens, UniProt P08833); assay: BIAcore direct binding kinetics of peptides on immobilized IGFBP-1; set-up: made in house; host or cells: CHO cells; conditions: koff/kon, BIAcore kinetics; read-out: KD ± (SD or SE)
T1 sequence (P08833 26-259): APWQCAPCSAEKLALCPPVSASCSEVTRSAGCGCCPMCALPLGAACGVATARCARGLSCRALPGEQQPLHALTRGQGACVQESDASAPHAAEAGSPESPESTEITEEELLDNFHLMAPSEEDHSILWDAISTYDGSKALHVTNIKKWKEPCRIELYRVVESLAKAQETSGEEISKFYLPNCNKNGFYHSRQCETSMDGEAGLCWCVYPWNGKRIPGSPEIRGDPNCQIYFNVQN
Source text: WO 98/45427 published Oct. 15, 1998 discloses the preparation and characterization of the IGFBP-1 displacer peptide BP1-01 ([…]) (SEQ ID NO:26). The kinetics of BP1-01 peptide variants were examined in a BIAcore™ (BIAcore, Inc., Piscataway, N.J.) assay using IGFBP-1 covalently coupled via EDC/NHS (as described by the manufacturer) to a dextran chip. […] The latter implies a half-life for peptide dissociation from IGFBP-1 of approximately 28 sec. The association rate constant is moderately fast, consistent with the notion that the peptide may not undergo significant conformation change upon binding to IGFBP-1.
Inhibition assays for measuring relative potencies of peptides for inhibiting IGFBP-1 binding to IGF-I have been described (e.g., WO 98/45427, supra). Peptides described herein were of sufficient binding affinity to allow for direct measurement of binding affinities by surface plasmon resonance (SPR) using a BIACORE™ system. The direct binding kinetics of IGFBP-1 peptides were measured by injecting a series of 2-fold diluted peptides in running buffer (0.05% TWEEN 20™ in PBS) over a carboxy-methyl (CM) biosensor chip coupled with about 590-1000 RU of IGFBP-1 at a flow rate of 50 μl/min on a BIACORE 2000™ or BIACORE 3000™ surface-plasmon-resonance instrument. The immobilization of IGFBP-1 was performed through EDC/NHS chemistry as described by the manufacturer. Peptides were also injected through a flow cell containing IGFBP-3 as background control. Since the off-rate for most of the peptides is relatively fast (in the range of 2×10^−2 s^−1), off-rate measurement was set for 30 minutes. This allowed for regeneration of IGFBP-1 on the chip by simple dissociation, rather than by addition of eluent. For each dilution of peptides, a global fit of the sensorgram data was performed using a 1:1 Langmuir binding model.

IGFBP-3 [2] = target: T2, IGFBP-3 (Homo sapiens, UniProt P17936); assay: BIACORE kinetics: IGFBP-3 binding to immobilized IGF-1 variants; conditions: for Binding to IGFBP-3 ka: 25 C; for IGFBP-3 ka / IGFBP-3 kd: Table XV
T2 construct: made in house
T2 sequence (P17936 28-291): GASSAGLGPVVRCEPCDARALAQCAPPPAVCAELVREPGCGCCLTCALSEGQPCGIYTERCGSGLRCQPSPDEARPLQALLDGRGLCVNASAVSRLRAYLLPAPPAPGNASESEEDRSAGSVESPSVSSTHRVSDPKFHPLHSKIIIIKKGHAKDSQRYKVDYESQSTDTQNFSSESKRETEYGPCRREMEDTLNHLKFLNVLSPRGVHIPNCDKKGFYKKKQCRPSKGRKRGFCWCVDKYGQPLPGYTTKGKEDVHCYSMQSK
Protocol: (§1) The binding affinities of the IGF variants for IGFBP-1 and IGFBP-3 were determined using a BIACORE™-2000 real time kinetic interaction analysis system (Biacore, Inc., Piscataway, N.J.) to measure association (ka) and dissociation (kd) rates. Carboxymethylated dextran biosensor chips (CM5, BIAcore Inc.) were activated with EDC (N-ethyl-N′-(3-dimethylaminopropyl)-carbodiimide hydrochloride) and NHS(N-hydroxysuccinimide) according to the supplier's instructions. For immobilization, IGF mutants in 20 mM sodium acetate, pH 4.8, were injected onto the biosensor chip at a concentration of 50 μg/ml to yield approximately 450-600 RU's (resonance-responce units) of covalently-coupled protein. Unreacted groups were blocked with an injection of 1 M ethanolamine. Kinetic measurements were carried out by injecting two-fold serial dilutions (starting at 1 μM) of either IGFBP-1 or IGFBP-3 in running buffer (PBS, 0.05% TWEEN 20™, 0.1% ovalbumin, 0.1% sodium azide) at 25 °C using a flow rate of 20 μl/min. Association rates (ka) and dissociation rates (kd) were calculated separately using a 1:1 Langmuir™ association model in the BIACORE™ evaluation software v. 3.0. The equilibrium dissociation constant (KD) was calculated as kd/ka.

IGFBP-1 [3] = target: T1, IGFBP-1; assay: BIACORE kinetics: IGFBP-1 binding to immobilized IGF-1 variants; set-up: made in house; host or cells: CHO cells; conditions: for Binding to IGFBP-1 ka: 25 C
Protocol: as §1
(§2) For measurements of IGFBP-1 binding to IGF-1, kinetics experiments were conducted using a single-cysteine IGF-1 variant, Y31C, that was immobilized onto the sensor chip surface via a disulfide linkage (BIACORE™ System Manual Supplement, 5a-1, Pharmacia (1991)).

IGFBP-1 [4] = assay: as above; set-up: species or system human; conditions: from relative KD values
Protocol: as §1, §2

[5] = tested on: human articular cartilage explants; assay: human articular cartilage explants from diseased joints: matrix synthesis (35S-sulfate uptake); assay type: cell-based; conditions: 40 ng/ml
Protocol: The metacarpophalangeal joint of a six-month old pig was cultured as described above for bovine articular cartilage in Example 8. This explant was cultured in media alone or in media with D12K, D12R, or wild-type IGF-1 (at 10 nM) alone or in the presence of IL-1α at 1 ng/ml, as described above. Human explants were from patients undergoing joint replacement surgery. Articular cartilage was harvested, aliquoted (40-45 mg/tube) and cultured as above. […] Fresh media was added on days 0, 1, 2, and 3. Matrix breakdown was determined by measuring the amount of proteoglycans in the media using the DMMB assay as set forth above. Matrix (proteoglycan) synthesis was determined by measuring ^35S-sulfate uptake as set forth above.
Human articular cartilage explants were cultured in media or treated with IGF-1 by itself or in combination with either BP3-40 or BP3-15 at 0.1 mg/ml as set forth above. Matrix breakdown was determined by measuring the release of proteoglycans into media as described above. Matrix synthesis was determined by counting the amount of ^35S-sulfate incorporated into the cartilage tissue as described above.
The same Material and Methods (for human tissue) were used as described above, using articular cartilage explants from human joints removed from patients undergoing joint replacement. These explants were cultured with IGF-1 alone at 40 ng/ml, or IGF-1 with BP1-17, BP3-15, or BP1-16 (0.1 mg/ml), or IGF-1 with buffer (HEPES).

[6] = blood clearance, pharmacokinetics and tissue distribution of radiolabeled IGF-1 variants, IV in rats; assay type: in vivo, rat
IGFBP-3 [7] = target: T2, IGFBP-3; assay: competitive phage ELISA of IGF-1 mutants, IGFBP-3; assay type: binding; conditions: phage display, soluble IGFBP-3 competitor
Protocol: (§3) An alanine-scanning mutagenesis approach (Cunningham and Wells, Science, 244: 1081-1085 (1989); U.S. Pat. No. 5,834,250) was used to remove that portion of each side chain of IGF-1 beyond the beta carbon. The contribution of these atoms to the free energy of binding of the IGF-1 analog to IGFBP-1 or to IGFBP-3 was then assessed by competitive phage ELISA. In this assay, IGFBP-1 or IGFBP-3 is used to inhibit IGF-phage mutants from binding to an IGFBP-1- or IGFBP-3-coated immunosorbant plate.
(§4) Immunosorbent plates (Nunc, MAXISORP™, 96 wells) were coated with 100 μl/well of 1 μg/ml IGFBP-1 or IGFBP-3 in PBS buffer pH 7.2 at 4° C. overnight. The plates were then blocked with 0.5% TWEEN 20™/PBS (also used as binding buffer) for 2 hours at room temperature (proteinaceous blocking agents like bovine serum albumin were avoided to prevent potential IGF or IGFBP contamination). E. coli cells (XL1-Blue, Stratagene) freshly transformed with phagemid vector were grown overnight in 5 mL 2YT medium (Sambrook et al., supra) in the presence of M13-VCS helper phage (Stratagene). Phage particles were harvested and resuspended in PBS buffer as described in Lowman, H. B., “Phage Display of Peptide Libraries on Protein Scaffolds,” in Cabilly, S. (ed.), Combinatorial Peptide Library Protocols (Humana Press Inc.: Totowa, N.J., 1998), pp. 249-264. Then phage concentrations were normalized to yield a maximal ELISA signal of 0.2-0.4 for each mutant (Lowman, in Cabilly, S. (ed.), supra). Threefold serial dilutions of soluble competitor were prepared on non-absorbent microtiter plates (Nunc, F, 96 wells) with binding buffer (0.5% TWEEN 20™/PBS) containing phage at the previously determined concentrations. The dilution range of competitor protein extended over six orders of magnitude, starting at 5 μM for IGFBP-1 and 500 nM for IGFBP-3. After blocking, the plates containing immobilized target were washed with 0.05% TWEEN™/PBS buffer and subsequently incubated with 80 μl/well of the premixed phage-competitor solutions for 1 hour at room temperature. After washing, bound phage was detected with 80 μl/well of a solution containing a primary rabbit anti-phage polyclonal antibody and a secondary goat anti-rabbit monoclonal antibody-horseradish peroxidase conjugate in 0.5% TWEEN 20™/PBS. o-Phenylenediamine (Sigma) and tetramethylbenzidine (Kirkegaard and Perry) were used as chromogenic substrates, resulting in product detection at 492 and 450 nm, respectively. IC50 values were determined by fitting the binding data to a generic saturation curve (Lowman, in Cabilly, S. (ed.), supra). At least two individual clones of each IGF-1 mutant were assayed. Numbers in Table XIII represent mean±standard deviation of individually assessed IC50 values.

IGFBP-1 [8] = target: T1, IGFBP-1; assay: competitive phage ELISA of IGF-1 mutants, IGFBP-1; assay type: binding; set-up: made in house; host or cells: CHO cells; conditions: phage display, soluble IGFBP-1 competitor
Protocol: as §3, §4

Molecule | Kd (IGFBP-1 [1]) | Binding to IGFBP-3 ka (IGFBP-3 [2]) | Binding to IGFBP-3 KD (IGFBP-3 [2]; kd/ka) | Binding to IGFBP-1 ka (IGFBP-1 [3]) | Binding to IGFBP-1 KD (IGFBP-1 [3]; kd/ka) | Specificity Relative BP-1 / Relative BP-3 (IGFBP-1 [4]) | IGFBP-3 ka (IGFBP-3 [2]) | IGFBP-3 kd (IGFBP-3 [2]) | matrix synthesis in diseased human articular cartilage [5] | rate of clearance from blood ([6]; radiolabeled, IV, rats) | kidney tissue-to-blood ratio ([6]; radiolabeled, IV, rats, 5, 15, 30 minutes) | clearance ([6]; single IV dose in rats) | IC50 (IGFBP-3 [7]) | IC50 (IGFBP-1 [8])
CC(C)C[C@@H]1NC(=O)[C@H](Cc2c[nH]c3ccccc23)NC(=O)[C@H](CCC(N)=O)NC(=O)[C@H](CC(C)C)NC(=O)[C@@H]2CCCN2C(=O)CNC(=O)[C@H](C)NC(=O)[C@H](CCCNC(=N)N)NC(=O)[C@@H](NC(=O)[C@@H](NC(=O)[C@H](CCCNC(=N)N)NC(=O)[C@H](C)NC(=O)[C@@H](N)CCC(=O)O)C(C)C)CSSC[C@@H](C(=O)N[C@@H](CCC(=O)O)C(=O)N[C@@H](CCCCN)C(=O)N[C@@H](Cc2ccc(O)cc2)C(=O)N[C@@H](Cc2ccccc2)C(N)=O)NC1=O [BP1-20] (H-EARVCRAGPLQWLCEKYF-NH2; disulfide 5-14; N-terminus assumed) | 33 ± 15 nM |  |  |  |  |  |  |  |  |  |  |  |  | 
P39A: IGF-1 single alanine mutant |  | 2.7 ± 0.2 ×10^5 M^−1s^−1 | wild-type kinetics | 3.1 ± 0.2 ×10^4 M^−1s^−1 | wild-type kinetics | 0.7 |  |  |  |  |  |  |  | 
F16A/F49A: double mutant of IGF-1, F16A and F49A |  |  |  |  |  |  | 0.4 ± 0.1 ×10^5 M^−1 | 38.6 ± 2.7 ×10^−4 s^−1 | stimulated matrix synthesis in diseased human articular cartilage |  |  |  |  | 
F49A: IGF-1 variant wherein phenylalanine at position 49 is changed to alanine |  | 2.7 ± 0.7 ×10^5 M^−1s^−1 |  | 1.26 ± 0.8 ×10^4 M^−1s^−1 |  | 16.7 | 2.7 ± 0.7 ×10^5 M^−1 | 17.1 ± 0.9 ×10^−4 s^−1 | stimulated matrix synthesis in diseased human articular cartilage | cleared at a faster rate compared to wild-type human IGF-1 | accumulate at statistically significant higher levels in the kidney compared to wild-type IGF-1; also recorded: accumulate at statistically significant higher ratios in the kidney compared to wild-type IGF-1 | 7.12 ± 2.08 mL/min/kg | 2.72 ± 1.11 nM | > 1000 nM
